According to the supplement of paper PMC10567573:

B1: ZNF449 (parent)
chain: TLHQRTHTEERPFKCNYCGKSFRQ

Variants of: B1
Assay: protein stability index of a GFP-peptide fusion (GPS, HEK-293T) (PSI 1-6); higher = more stable
Conditions: c terminus: a fixed tail appended
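Note: lentivirally expressed fusions sorted by FACS into six bins by GFP to DsRed ratio, PSI derived from sequencing read proportions per bin multiplied by bin number.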

Protein stability index, by site and new letter:
F22: S 2.85, H 3.05, P 3.03, G 2.35, D 3.12, R 1.48, V 3.59, E 3.02, W 1.74, K 3.37, M 2.28, Q 2.88, A 3.02, Y 2.35, N 3.51, I 2.02, C 3.22, L 1.82, T 2.49
T8: L 1.64, V 2.59, E 3.07, R 1.99, F 2.34, M 2.6, Q 2.69, W 1.82, A 2.29, H 1.18, C 2.3, D 2.62, S 2.65, G 2.04, P 2.4, N 1.94, K 3.13, I 2.56, Y 2.54
R5: K 2.77, V 3.27, N 1.65, Y 2.4, I 1.97, Q 1.89, S 2.45, L 2.24, T 2.45, M 1.76, P 2.12, W 2.15
T6: M 2.03, A 2.38, E 2.67, H 1.55, N 2.08, G 1.85, F 1.76, S 3.12, D 2.56, C 3.06, Y 2.25, W 2, Q 2.54, P 1.76, R 2.28, I 2.33
Y17: A 1.93, T 2.62, C 2, E 2.3, P 2.98, V 2.32, L 2.15, F 2.22, Q 3.16, W 2.61, R 2.92, N 3.21, M 2.4, I 2.14, S 2.55, D 2.09, K 2.67
C18: W 2.33, G 3.02, F 2.85, R 3.38, H 2.96, E 3.78, M 2.72, A 3.61, P 2.91, D 3.48, Y 2.43, S 3.17, K 3.12, T 3.4, N 3.68, L 2.61, I 2.92, V 2.12, Q 2.26
E10: V 3.31, A 1.95, L 1.55, P 1.91, M 2.73, Y 2.55, H 1.78, Q 2.56, T 2.25, F 1.48, G 1.18, R 1.81, C 1.74, K 2.03, S 2.1, N 2.48, I 3.39, W 2.46
S21: I 2.26, N 2.69, C 2.02, E 3.13, R 2.38, L 3.6, H 2.58, G 1.82, D 2.75, Q 2.27, A 1.92, F 1.68, T 2.91, M 2.19, K 2.32, W 2.29, P 2.15, V 2.29
F13: R 1.69, H 1.39, C 3.05, M 2.18, S 2.26, T 3.78, G 2.79, I 3.01, K 2.28, P 2.24, Q 2.92, Y 2.22, A 2.14, D 2.92, N 3.54, L 2.07
E9: F 1.25, I 1.8, L 1.2, Q 2.72, R 2.26, A 2, W 1.77, P 1.93, G 2.97, S 2.55, V 1.76, D 2.15, N 1.88, Y 2.19, H 2.71, C 2.4, K 3.15
R23: E 3.53, K 2.97, S 2.67, D 3, A 2.69, W 2.29, V 2.15, H 2.79, C 4.7, P 2.58, G 2.27, L 2.4, M 2.8, Q 2.16, F 2.21, N 2.35, I 3.2, T 2.7
K20: D 2.83, Y 1.9, E 1.79, W 1.88, A 1.97, T 2.58, N 2.37, Q 1.82, I 2.1, G 1.61, S 2.12, C 1.86, F 1.78, R 3.28, L 2.07, V 2.41, H 1.91, M 2.79, P 2.31
H7: E 2.5, S 2.4, P 2.43, V 4.2, D 2.65, F 2.13, Q 2.88, I 2.37, C 2.66, Y 1.94, N 2.12, W 2.88, M 2.29, R 2.48, T 2.8, G 1.97, L 2, A 1.65, K 2.27
G19: H 2.92, Q 2.96, R 2.6, A 2.14, K 2.79, T 2.4, C 2.38, D 3.4, S 2.06, L 2.72, E 2.68, W 1.97, N 2.48, I 3.3, P 2.67, V 2.09, M 2.73, F 2.38, Y 2.7
P12: M 2.45, G 2.52, I 3.29, L 3.05, V 2.57, W 2.89, D 3.12, T 2.26, H 2.32, N 2.41, K 2.89, A 2.81, Q 2.79, E 3.26, F 2.25, Y 2.77, R 2.21, S 2.52, C 2.94
C15: W 2.59, Q 3.37, V 2.67, D 3.87, K 3.55, M 2.82, T 3.29, N 3.41, F 2.98, P 3.1, I 3.13, S 3.7, Y 3.26, H 3.4, L 1.4, G 3.43, A 2.49, R 2.61
N16: T 2.67, M 2.1, C 1.73, L 1.85, H 1.93, V 2.86, Y 2.61, I 2.27, W 2.04, R 1.65, Q 2.98, D 2.16, S 3.03, G 1.95, P 3.32, A 2.44, F 2.75, K 2.76, E 2.13
R11: L 2.39, Q 2.95, M 2.25, E 3.24, H 2.53, F 1.92, D 3.19, W 2.09, K 2.5, N 2.42, T 2.33, I 2.08, Y 2.11, S 2.25, C 2.24, P 2.12, A 2.39, V 2.54
K14: N 1.95, I 2.27, Y 1.93, W 2.1, M 2.2, Q 2.22, P 2.83, S 2.34, D 2.41, F 2.85, H 2.31, C 2.71, T 1.9, L 1.73
